Drawing on publication PMC12704761, “RAD51AP1 is a versatile RAD51 modulator” (Proceedings of the National Academy of Sciences of the …, 2025), this text covers response for one variant.

B1: RAD51AP1 (RAD51 associated protein 1), full-length wild type [not stated] / RAD51 recombinase [not stated] (parent complex)
chain 1: MVRPVRHKKPVNYSQFDHSDSDDDFVSATVPLNKKSRTAPKELKQDKPKPNLNNLRKEEIPVQEKTPKKRLPEGTFSIPASAVPCTKMALDDKLYQRDLEVALALSVKELPTVTTNVQNSQDKSIEKHGSSKIETMNKSPHISNCSVASDYLDLDKITVEDDVGGVQGKRKAASKAAAQQRKILLEGSDGDSANDTEPDFAPGEDSEDDSDFCESEDNDEDFSMRKSKVKEIKKKEVKVKSPVEKKEKKSKSKCNALVTSVDSAPAAVKSESQSLPKKVSLSSDTTRKPLEIRSPSAESKKPKWVPPAASGGSRSSSSPLVVVSVKSPNQSLRLGLSRLARVKPLHPNATST
chain 2: MAMQMQLEANADTSVEEESFGPQPISRLEQCGINANDVKKLEEAGFHTVEAVAYAPKKELINIKGISEAKADKILAEAAKLVPMGFTTATEFHQRRSEIIQITTGSKELDKLLQGGIETGSITEMFGEFRTGKTQICHTLAVTCQLPIDRGGGEGKAMYIDTEGTFRPERLLAVAERYGLSGSDVLDNVAYARAFNTDHQTQLLYQASAMMVESRYALLIVDSATALYRTDYSGRGELSARQMHLARFLRMLLRLADEFGVAVVITNQVVAQVDGAAMFAADPKKPIGGNIIAHASTTRLYLRKGRGETRICKIYDSPCLPEAEAMFAINADGVGDAKD

In the experiment the parent is B1. The experiment in a line: BLI; RAD51 about 2.5 µM (highest point, read from the x axis); read off a plot.
Take chain 1 MVRPVRHKKPVNYSQFDHSDSDDDFVSATVPLNKKSRTAPKELKQDKPKPNLNNLRKEEIPVQEKTPKKRLPEGTFSIPASAVPCTKMALDDKLYQRDLEVALALSVKELPTVTTNVQNSQDKSIEKHGSSKIETMNKSPHISNCSVASDYLDLDKITVEDDVGGVQGKRKAASKAAAQQRKILLEGSDGDSANDTEPDFAPGEDSEDDSDFCESEDNDEDFSMRKSKVKEIKKKEVKVKSPVEKKEKKSKSKCNALVTSVDSAPAAVKSESQSLPKKVSLSSDTTRKPLEIRSPSAESKKPKWVPPAASGGSRSSSSPLVVVSVKSPNQSLAAGASRLARVKPLHPNATST [chain 1 R333A, chain 1 L334A, chain 1 L336A]: the response was roughly 0.005 nm.
